From patent US20120121597A1 (ROCKEFELLER UNIVERSITY, published 2012)

Assays:
[1] = target: CD4 receptor on the target cells of the virus neutralization assay (human, UniProt P01730 26-458); test: cell-based or functional assay
human soluble CD4 (sCD4) [2] = target: T1, human soluble CD4 (sCD4) (human, UniProt P01730 26-396); test: competition ELISA on plate-coated sCD4; competitor: fixed concentration of HRP-labeled iMab
T1 construct: also called human CD4

human soluble CD4 (sCD4) [3] = target: T1, human soluble CD4 (sCD4); test: SPR, Biacore-3000

B1: iMabm36 fusion antibody (bispecific antibody, human IgG1, kappa)
heavy: QVQLQQSGPEVVKPGASVKMSCKASGYTFTSYVIHWVRQKPGQGLDWIGYINPYNDGTDYDEKFKGKATLTSDTSTSTAYMELSSLRSEDTAVYYCAREKDNYATGAWFAYWGQGTLVTVSSASTKGPSVFPLAPSSKSTSGGTAALGCLVKDYFPEPVTVSWNSGALTSGVHTFPAVLQSSGLYSLSSVVTVPSSSLGTQTYICNVNHKPSNTKVDKKVEPKSCDKTHTCPPCPAPEFEGGPSVFLFPPKPKDTLMISRTPEVTCVVVDVSHEDPEVKFNWYVDGVEVHNAKTKPREEQYNSTYRVVSVLTVLHQDWLNGKEYKCKVSNKALPASIEKTISKAKGQPREPQVYTLPPSRDELTKNQVSLTCLVKGFYPSDIAVEWESNGQPENNYKTTPPVLDSDGSFFLYSKLTVDKSRWQQGNVFSCSVLHEALHSHYTQKSLSLSPGKLEGGGGSGGGGSGGGGSGQVQLVQSGGGLVQPGGSLRLSCAASAFDFSDYEMSWVRQAPGKGLEWIGEINDSGNTIYNPSLKSRVTISRDNSKNTLYLQMNTLRAEDTAIYYCAIYGGNSGGEYWGQGTLVTVSS
light: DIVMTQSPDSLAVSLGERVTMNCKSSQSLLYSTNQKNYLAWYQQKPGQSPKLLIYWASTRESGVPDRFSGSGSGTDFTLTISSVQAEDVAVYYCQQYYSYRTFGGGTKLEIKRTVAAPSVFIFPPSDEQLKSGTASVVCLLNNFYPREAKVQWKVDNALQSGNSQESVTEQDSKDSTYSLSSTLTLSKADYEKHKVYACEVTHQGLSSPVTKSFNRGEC
- IC50 (read off the curve), virus G23 [Virus (G23] [1]: ~0.2 nM

B2: m36 (other)
VH: QVQLVQSGGGLVQPGGSLRLSCAASAFDFSDYEMSWVRQAPGKGLEWIGEINDSGNTIYNPSLKSRVTISRDNSKNTLYLQMNTLRAEDTAIYYCAIYGGNSGGEYWGQGTLVTVSS
notes: also called m36 polypeptide
- binding result (human soluble CD4 (sCD4) [2]): no binding

B3: iMab mutant E95A (CDR-H3 ARAKDNYATGAWFA) (antibody, V domains shown)
VH: QVQLQQSGPEVVKPGASVKMSCKASGYTFTSYVIHWVRQKPGQGLDWIGYINPYNDGTDYDEKFKGKATLTSDTSTSTAYMELSSLRSEDTAVYYCARAKDNYATGAWFAYWGQGTLVTVSS
VL: DIVMTQSPDSLAVSLGERVTMNCKSSQSLLYSTNQKNYLAWYQQKPGQSPKLLIYWASTRESGVPDRFSGSGSGTDFTLTISSVQAEDVAVYYCQQYYSYRTFGGGTKLEIK
- Kd (human soluble CD4 (sCD4) [3]): 7.7 nM
- koff (human soluble CD4 (sCD4) [3]): 0.0048 s⁻¹
- kon (human soluble CD4 (sCD4) [3]): 620000 M⁻¹ s⁻¹
